The source of these data is patent US20190077849A1.

Like-named read-outs stand apart in the source and are kept apart here.

Common to all, as to experiment: cell-based or functional assay
Test [1] deals with HIV-1 Env of ZM106.9.SG3 pseudovirus (clade C) (HIV-1).
Test [2] concerns the target HIV-1 Env of 6095.V1.C10.SG3 pseudovirus (clade ACD) (HIV-1).
Test [3] deals with HIV-1 Env of 6101.10.SG3 pseudovirus (clade B) (HIV-1).
Test [4] has as its target HIV-1 Env of ZM215.8.SG3 pseudovirus (clade C) (HIV-1).
For test [5], the target named is HIV-1 Env of YU2.DG.SG3 pseudovirus (clade B) (HIV-1) (UniProt P35961).
In test [6] the target is HIV-1 Env of PVO.04.SG3 pseudovirus (clade B) (HIV-1).
Test [7] addresses HIV-1 Env of KER2008.12.SG3 pseudovirus (clade A) (HIV-1).
Test [8] deals with HIV-1 Env of CNE31.SG3 pseudovirus (clade C) (HIV-1).
The target in test [9] is HIV-1 Env of TH966.8.SG3 pseudovirus (clade AE) (HIV-1).
Test [10] deals with HIV-1 Env of ZM106.9.SG3 pseudovirus (clade C) (HIV-1). The source holds these as a separate data set.
Test [11] deals with HIV-1 Env of 6095.V1.C10.SG3 pseudovirus (clade ACD) (HIV-1). The source holds these as a separate data set.
Test [12] addresses HIV-1 Env of 6101.10.SG3 pseudovirus (clade B) (HIV-1). This is another data set of the same source.
The target of test [13] is HIV-1 Env of ZM215.8.SG3 pseudovirus (clade C) (HIV-1). The source holds these as a separate data set.
Test [14] concerns the target HIV-1 Env of YU2.DG.SG3 pseudovirus (clade B) (HIV-1) (UniProt P35961). The source holds these as a separate data set.
Test [15] has as its target HIV-1 Env of PVO.04.SG3 pseudovirus (clade B) (HIV-1). The source holds these as a separate data set.
Test [16] has as its target HIV-1 Env of KER2008.12.SG3 pseudovirus (clade A) (HIV-1). This is another data set of the same source.
In test [17] the target is HIV-1 Env of CNE31.SG3 pseudovirus (clade C) (HIV-1). The source holds these as a separate data set.
Test [18] addresses HIV-1 Env of TH966.8.SG3 pseudovirus (clade AE) (HIV-1). This is another data set of the same source.

Chain of 10E8v4 S100cL (antibody) (VH): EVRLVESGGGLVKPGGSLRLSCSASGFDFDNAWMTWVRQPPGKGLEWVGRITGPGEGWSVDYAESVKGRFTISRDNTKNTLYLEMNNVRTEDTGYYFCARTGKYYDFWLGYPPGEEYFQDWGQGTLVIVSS
Chain of 10E8v4 S100cL (antibody) (VL): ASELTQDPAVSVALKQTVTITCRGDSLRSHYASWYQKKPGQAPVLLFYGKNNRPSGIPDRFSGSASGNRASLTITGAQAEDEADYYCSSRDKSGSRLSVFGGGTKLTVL
Chain of 10E8v4 S100cF (antibody) (VH): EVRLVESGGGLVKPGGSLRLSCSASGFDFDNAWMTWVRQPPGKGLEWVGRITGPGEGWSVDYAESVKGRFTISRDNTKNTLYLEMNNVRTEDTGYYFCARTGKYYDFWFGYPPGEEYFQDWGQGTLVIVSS
Chain of 10E8v4 S100cF (antibody) (VL): as the sequence (VL) above
Chain of 10E8v4 S100cR (antibody) (VH): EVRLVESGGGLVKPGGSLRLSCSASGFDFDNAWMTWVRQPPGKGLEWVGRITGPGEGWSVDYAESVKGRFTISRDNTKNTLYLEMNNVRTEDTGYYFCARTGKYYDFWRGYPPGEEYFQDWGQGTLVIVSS
Chain of 10E8v4 S100cR (antibody) (VL): as the sequence (VL) above
Chain of 10E8v4 S100cY (antibody) (VH): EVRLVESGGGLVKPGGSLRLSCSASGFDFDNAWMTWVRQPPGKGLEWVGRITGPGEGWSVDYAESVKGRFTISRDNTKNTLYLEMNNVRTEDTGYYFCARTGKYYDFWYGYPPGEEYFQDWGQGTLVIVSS
Chain of 10E8v4 S100cY (antibody) (VL): as the sequence (VL) above
Chain of 10E8v4 S100cW (antibody) (VH): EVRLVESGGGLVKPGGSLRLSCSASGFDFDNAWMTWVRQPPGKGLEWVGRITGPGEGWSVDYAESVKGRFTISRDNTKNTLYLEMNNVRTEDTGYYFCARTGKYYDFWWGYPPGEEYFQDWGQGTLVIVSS
Chain of 10E8v4 S100cW (antibody) (VL): as the sequence (VL) above
Chain of 10E8v4 S100cH (antibody) (VH): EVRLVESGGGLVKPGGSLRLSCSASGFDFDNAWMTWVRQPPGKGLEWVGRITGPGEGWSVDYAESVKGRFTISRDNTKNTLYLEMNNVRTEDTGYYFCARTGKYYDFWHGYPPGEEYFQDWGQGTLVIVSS
Chain of 10E8v4 S100cH (antibody) (VL): as the sequence (VL) above

10E8v4 S100cH (antibody): the IC50, pseudovirus neutralization in test [1] was above 50 µg/mL; in test [2] it was 0.011 µg/mL; in test [3] it was 0.103 µg/mL; in [4], 0.141 µg/mL; in [5], 2.59 µg/mL; in [6], 3.4 µg/mL. Moreover, the values for the IC50, pseudovirus neutralization in test [7], in test [8] and in [9] were above 50 µg/mL, 2.24 µg/mL and 0.091 µg/mL, respectively. Further, the IC80, pseudovirus neutralization in test [1] is above 50 µg/mL; in test [2] it was 0.046 µg/mL; in test [3], 0.643 µg/mL; in test [4] it was 0.966 µg/mL; in test [5], 10.9 µg/mL; in test [6], 14 µg/mL. Also, the results for the IC80, pseudovirus neutralization in test [7], in [8] and in [9] were above 50 µg/mL, 6.79 µg/mL and 0.488 µg/mL, respectively.

In the case of 10E8v4 S100cF (antibody), the IC50, pseudovirus neutralization in [1] is above 50 µg/mL; in test [2], 0.001 µg/mL; in [3], 0.001 µg/mL; in [4] it was 0.003 µg/mL; in [5], 0.073 µg/mL; in test [6] it was 0.147 µg/mL. Besides, the IC50, pseudovirus neutralization is above 50 µg/mL in test [7], 0.097 µg/mL in test [8] and 0.002 µg/mL in test [9]. In addition, the IC80, pseudovirus neutralization is above 50 µg/mL in [1]; 0.001 µg/mL in test [2]; 0.008 µg/mL in test [3]; 0.02 µg/mL in test [4]; 0.482 µg/mL in [5]; 0.696 µg/mL in test [6]. Further, the IC80, pseudovirus neutralization in test [7] is above 50 µg/mL; in test [8] it was 0.306 µg/mL; in [9], 0.017 µg/mL.

As to 10E8v4 S100cW (antibody), the IC50, pseudovirus neutralization is 0.001 µg/mL in test [2]; 0.001 µg/mL in test [3]; 0.001 µg/mL in [4]; 0.042 µg/mL in test [5]; 0.088 µg/mL in test [6]; 0.041 µg/mL in test [8]. In addition, the IC50, pseudovirus neutralization in [9] is 0.001 µg/mL; in test [10], above 50 µg/mL; in test [12], 0.002 µg/mL; in test [13], 0.004 µg/mL; in test [14], 0.031 µg/mL; in [15], 0.085 µg/mL. The IC50, pseudovirus neutralization in [16] is above 50 µg/mL; in test [17], 0.107 µg/mL; in test [18], 0.003 µg/mL. In addition, the IC80, pseudovirus neutralization in test [3] amounted to 0.006 µg/mL; in test [4] it was 0.012 µg/mL; in test [5] it was 0.331 µg/mL; in test [6], 0.388 µg/mL; in test [8] it was 0.149 µg/mL; in [9], 0.007 µg/mL. Moreover, the IC80, pseudovirus neutralization was above 50 µg/mL in test [10]; 0.001 µg/mL in test [11]; 0.01 µg/mL in [12]; 0.025 µg/mL in test [13]; 0.26 µg/mL in test [14]; 0.459 µg/mL in [15]. The values for the IC80, pseudovirus neutralization in test [16], in test [17] and in test [18] were above 50 µg/mL, 0.295 µg/mL and 0.013 µg/mL, respectively.

On to 10E8v4 S100cY (antibody), for which the IC50, pseudovirus neutralization was above 50 µg/mL in test [1]; 0.001 µg/mL in [2]; 0.009 µg/mL in test [3]; 0.028 µg/mL in [4]; 0.376 µg/mL in test [5]; 0.412 µg/mL in [6]. The IC50, pseudovirus neutralization in test [7] was above 50 µg/mL; in [8] it was 0.368 µg/mL; in test [9] it was 0.011 µg/mL. The IC80, pseudovirus neutralization in test [1] is above 50 µg/mL; in [2] it was 0.006 µg/mL; in test [3] it was 0.063 µg/mL; in test [4], 0.129 µg/mL; in test [5], 2.25 µg/mL; in [6] it was 3.44 µg/mL. Besides, the results for the IC80, pseudovirus neutralization in test [7], in test [8] and in test [9] were above 50 µg/mL, 1.39 µg/mL and 0.075 µg/mL, respectively.

In the case of 10E8v4 S100cR (antibody), the IC50, pseudovirus neutralization was above 50 µg/mL in test [1]; 0.011 µg/mL in test [2]; 0.176 µg/mL in test [3]; 0.363 µg/mL in [4]; 3.87 µg/mL in test [5]; 6.45 µg/mL in test [6]. Besides, the figures for the IC50, pseudovirus neutralization in test [7], in test [8] and in [9] were above 50 µg/mL, 2.54 µg/mL and 0.168 µg/mL, respectively. Also, the IC80, pseudovirus neutralization in test [1] was above 50 µg/mL; in test [2], 0.048 µg/mL; in test [3], 0.891 µg/mL; in [4], 1.34 µg/mL; in [5] it was 12 µg/mL; in test [6], 25 µg/mL. The figures for the IC80, pseudovirus neutralization in test [7], in test [8] and in test [9] were above 50 µg/mL, 8.42 µg/mL and 0.648 µg/mL, respectively.

As to 10E8v4 S100cL (antibody), the IC50, pseudovirus neutralization in [1] is above 50 µg/mL; in test [2], 0.001 µg/mL; in test [3] it was 0.007 µg/mL; in test [4], 0.015 µg/mL; in test [5], 0.333 µg/mL; in test [6], 0.507 µg/mL. The IC50, pseudovirus neutralization in test [7] is above 50 µg/mL; in test [8], 0.354 µg/mL; in [9] it was 0.011 µg/mL. Moreover, the IC80, pseudovirus neutralization in test [1] is above 50 µg/mL; in test [2] it was 0.002 µg/mL; in test [3], 0.049 µg/mL; in [4] it was 0.095 µg/mL; in test [5] it was 1.75 µg/mL; in [6], 2.21 µg/mL. The IC80, pseudovirus neutralization was above 50 µg/mL in test [7], 1.01 µg/mL in test [8] and 0.079 µg/mL in [9].

Turning to 10E8v4 VL Y32H (antibody), the IC50, pseudovirus neutralization was above 50 µg/mL in test [10]; 0.032 µg/mL in [11]; 7.4 µg/mL in [12]; 1.39 µg/mL in test [13]; 8.76 µg/mL in [14]; above 50 µg/mL in test [15]. Further, the values for the IC50, pseudovirus neutralization in [16], in [17] and in test [18] were above 50 µg/mL, 29.9 µg/mL and 0.788 µg/mL, respectively.

Consider 10E8v4 VL Y32E (antibody), for which the IC50, pseudovirus neutralization in [10] is above 50 µg/mL; in [11] it was 0.215 µg/mL; in [12], above 50 µg/mL; in test [13] it was above 50 µg/mL; in test [14], above 50 µg/mL; in [15], above 50 µg/mL. Also, the IC50, pseudovirus neutralization is above 50 µg/mL in [16], above 50 µg/mL in test [17] and 19 µg/mL in [18].
